Columns and labels:
[1] = target: trypsin-activated PDE6 from mouse retina extracts (mouse (endogenous in retina)) (UniProt P27664); assay: inhibition of enzyme activity
[2] = target: trypsin-activated PDE6 isolated from bovine rod outer segment membranes (bovine) (UniProt P11541); assay: inhibition of enzyme activity
mass photometry = target: the molecule itself; assay: mass photometry

synthetic peptide of the C-terminus of Pγc, Pγc-59-83 (from UniProt Q13956 59-83)
Ki [1]: 8200 nM

synthetic peptide of the 25 C-terminal residues of Pγr, Pγr-63-87 (from UniProt P18545 63-87)
Ki [1]: 2500 nM

full-length Pγc (isolated protein used in PDE6 activity assays) (from UniProt Q13956 1-83) (natural protein)
Ki [2]: 0.0755 nM

full-length Pγr (isolated protein used in PDE6 activity assays) (from UniProt P18545 1-87) (natural protein)
Ki [2]: 0.0294 nM

B1: human cone cGMP-phosphodiesterase PDE6C catalytic subunit (residues 2-830), catalytic homodimer of holoPDE6C (enzyme, UniProt P51160 2-830, looked up)
chain: GEINQVAVEKYLEENPQFAKEYFDRKLRVEVLGEIFKNSQVPVQSSMSFSELTQVEESALCLELLWTVQEEGGTPEQGVHRALQRLAHLLQADRCSMFLCRSRNGIPEVASRLLDVTPTSKFEDNLVGPDKEVVFPLDIGIVGWAAHTKKTHNVPDVKKNSHFSDFMDKQTGYVTKNLLATPIVVGKEVLAVIMAVNKVNASEFSKQDEEVFSKYLNFVSIILRLHHTSYMYNIESRRSQILMWSANKVFEELTDVERQFHKALYTVRSYLNCERYSIGLLDMTKEKEFYDEWPIKLGEVEPYKGPKTPDGREVNFYKIIDYILHGKEEIKVIPTPPADHWTLISGLPTYVAENGFICNMMNAPADEYFTFQKGPVDETGWVIKNVLSLPIVNKKEDIVGVATFYNRKDGKPFDEHDEYITETLTQFLGWSLLNTDTYDKMNKLENRKDIAQEMLMNQTKATPEEIKSILKFQEKLNVDVIDDCEEKQLVAILKEDLPDPRSAELYEFRFSDFPLTEHGLIKCGIRLFFEINVVEKFKVPVEVLTRWMYTVRKGYRAVTYHNWRHGFNVGQTMFTLLMTGRLKKYYTDLEAFAMLAAAFCHDIDHRGTNNLYQMKSTSPLARLHGSSILERHHLEYSKTLLQDESLNIFQNLNKRQFETVIHLFEVAIIATDLALYFKKRTMFQKIVDACEQMQTEEEAIKYVTVDPTKKEIIMAMMMTACDLSAITKPWEVQSQVALMVANEFWEQGDLERTVLQQQPIPMMDRNKRDELPKLQVGFIDFVCTFVYKEFSRFHKEITPMLSGLQNNRVEWKSLADEYDAKMKVIEEEA
stoichiometry N (mass photometry): 2

— paper PMC11725853 (Proceedings of the National Academy of Sciences of the …, 2024)
